{
  "source": "patent US6576610B1",
  "about": "“Use of a context-dependent functional entity to enhance the efficacy of an agent” (Nuvas, LLC, priority 1999, dated 2003)",
  "key": {"factors IX and X": {"test_system": "factors IX and X", "conditions": "Rao et al. 1988; cited from earlier work"}, "NV144": {"target": "NV144 (UniProt P13726)"}, "TF 1-218": {"target": "TF 1-218 (UniProt P13726)"}, "Kringle 5 of plasminogen": {"target": "T1, Kringle 5 of plasminogen (Homo sapiens, UniProt P00747)", "T1 sequence (P00747 481-560 limits assumed)": "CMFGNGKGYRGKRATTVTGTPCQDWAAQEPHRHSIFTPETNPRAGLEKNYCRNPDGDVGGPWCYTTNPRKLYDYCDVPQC", "conditions": "Chang et al. 1998; read-out: binding to kringle 5 of plasminogen; cited from earlier work"}, "factor X": {"test_system": "factor X", "assay": "Linked functional assay: factor Xa generation by protein:VIIa complex incubated with factor X", "format": "biochemical", "conditions": "for Relative Proteolytic Activity: factor Xa generation, TF 1-218 = 1.00"}, "[1]": {"target": "T2, blood coagulation factor VIIa (UniProt P08709 61-466)", "T2 sequence (looked up)": "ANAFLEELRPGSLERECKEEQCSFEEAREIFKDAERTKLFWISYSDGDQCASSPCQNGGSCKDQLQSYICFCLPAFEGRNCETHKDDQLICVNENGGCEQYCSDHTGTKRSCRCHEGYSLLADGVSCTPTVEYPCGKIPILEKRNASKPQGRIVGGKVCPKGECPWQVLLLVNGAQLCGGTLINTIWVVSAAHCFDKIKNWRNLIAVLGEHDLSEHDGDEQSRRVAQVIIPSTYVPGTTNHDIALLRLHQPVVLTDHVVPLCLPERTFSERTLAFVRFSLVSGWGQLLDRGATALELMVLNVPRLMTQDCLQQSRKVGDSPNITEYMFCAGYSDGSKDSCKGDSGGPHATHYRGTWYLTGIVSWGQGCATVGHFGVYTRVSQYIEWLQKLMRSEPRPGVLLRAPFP", "assay": "surface plasmon resonance, Biacore 2000"}, "[2]": {"target": "T2, blood coagulation factor VIIa", "assay": "titration of the amidolytic activity of factor VIIa against protein concentration"}, "factor VIIa": {"target": "T3, factor VIIa (Homo sapiens, UniProt P08709)", "T3 sequence (P08709 61-212 limits assumed)": "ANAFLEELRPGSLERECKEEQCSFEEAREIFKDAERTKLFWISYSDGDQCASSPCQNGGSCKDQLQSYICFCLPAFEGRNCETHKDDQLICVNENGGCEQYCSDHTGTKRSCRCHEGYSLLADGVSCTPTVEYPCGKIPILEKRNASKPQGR", "T3 sequence (P08709 213-466 limits assumed)": "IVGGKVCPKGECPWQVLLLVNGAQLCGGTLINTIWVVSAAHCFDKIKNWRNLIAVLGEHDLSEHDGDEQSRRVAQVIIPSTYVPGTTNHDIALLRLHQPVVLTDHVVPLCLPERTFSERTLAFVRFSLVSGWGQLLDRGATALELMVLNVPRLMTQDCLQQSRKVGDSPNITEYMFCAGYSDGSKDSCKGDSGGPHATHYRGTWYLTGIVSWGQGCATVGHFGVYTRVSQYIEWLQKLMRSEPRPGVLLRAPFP", "assay": "Surface plasmon resonance (Biacore 2000) binding to factor VIIa", "conditions": "by surface plasmon resonance and amidolytic titration"}, "[3]": {"test_system": "C1300 neuroblastoma tumor spheroid", "assay": "Intravital microscopy of tumor vessels in skinfold chamber", "format": "in vivo, A/J mouse", "conditions": "infused over 30 min"}, "[4]": {"test_system": "MAT B III breast carcinoma tumors", "assay": "Syngeneic MAT B III rat breast carcinoma model", "format": "in vivo, Fisher 344 rats", "conditions": "NV144 alone", "text": "The MAT B III rat breast carcinoma is very malignant and fast-growing and, unlike many animal tumors, metastasizes. In addition, the tumor-bearing host lives sufficiently long to develop metastatic disease from the primary tumor. As such, the MAT-BIII tumor model has similar characteristics to human tumors.\nFisher 344 rats bearing MAT B III breast carcinoma tumors were used for these studies. Experiments were begun when the tumors reached approximately 170-200 mm3 in size (5-9 days; “day 0”). Tumors in saline treated controls grew very rapidly and reach a size of about 35,000 mm^3 at day 7. In the treatment groups, tumor-bearing rats were treated with NV144 or DOXIL (Sequus Pharmaceuticals, Inc.), either alone or in combination. In the clinic, DOXIL generally is administered at about 4 mg/kg.\nAt the highest dose of DOXIL (9 mg/kg), survival initially appeared to be similar in both groups of rats; however, none of the animals survived beyond day 23 due to the high dose of DOXIL."}},
  "note": "Entries after “also recorded” stand apart in the source; their conditions may differ.",
  "data": [
    {"molecule": "TF: integral transmembrane protein receptor tissue factor, trigger of the coagulation cascade", "values": [
      {"measurement": "enhancement of enzymatic activation of substrate factors IX and X on binding of factor VIIa", "setting": "factors IX and X", "result": "≤ 5,000 fold"}
    ]},
    {"molecule": "blood coagulation factor X", "values": [
      {"measurement": "Relative Proteolytic Activity", "setting": "NV144", "result": 0.86},
      {"measurement": "Relative Proteolytic Activity", "setting": "TF 1-218", "result": 1}
    ]},
    {"molecule": "NCCCCC(=O)O", "note": "[5-aminopentanoic acid]", "values": [
      {"measurement": "Kd", "setting": "Kringle 5 of plasminogen", "result": 580000, "unit": "nM"}
    ]},
    {"molecule": "NCCCCCCC(=O)O", "note": "[7-aminoheptanoic acid]", "values": [
      {"measurement": "Kd", "setting": "Kringle 5 of plasminogen", "result": 367000, "unit": "nM"}
    ]},
    {"molecule": "TF 1-218 (receptor, human, UniProt P13726 33-250, looked up, range 1-218; also called isolated truncated TF (tTF) domain alone; tTF) SGTTNTVAAYNLTWKSTNFKTILEWEPKPVNQVYTVQISTKSGDWKSKCFYTTDTECDLTDEIVKDVKQTYLARVFSYPAGNVESTGSAGEPLYENSPEFTPYLETNLGQPTIQSFEQVGTKVNVTVEDERTLVRRNNTFLSLRDVFGKDLIYTLYYWKSSSSGKKTAKTNTNEFLIDVDKGENYCFSVQAVIPSRTVNRKSTDSPVECMGQEKGEFR", "values": [
      {"measurement": "Relative Proteolytic Activity", "setting": "factor X", "result": 1.00},
      {"measurement": "Kd", "setting": "[1]", "result": 3.26, "unit": "nM"},
      {"measurement": "Kd", "setting": "[2]", "result": 4.73, "unit": "nM"}
    ]},
    {"molecule": "NV144 (other, human, range 3-211; also called CDFE; context-dependent functional entity) PRKLYDGGGGSGGGGSGGGGSTTNTVAAYNLTWKSTNFKTILEWEPKPVNQVYTVQISTKSGDWKSKCFYTTDTECDLTDEIVKDVKQTYLARVFSYPAGNVESTGSAGEPLYENSPEFTPYLETNLGQPTIQSFEQVGTKVNVTVEDERTLVRRNNTFLSLRDVFGKDLIYTLYYWKSSSSGKKTAKTNTNEFLIDVDKGENYCFSVQAVIPSRTVNRKSTDSPVECMG", "values": [
      {"measurement": "Kd", "setting": "[1]", "result": 3.22, "unit": "nM"},
      {"measurement": "Kd", "setting": "[2]", "result": 4.32, "unit": "nM"}
    ]},
    {"molecule": "NV144: CDFE fusion polypeptide: truncated human TF domain, (Gly4Ser)3 spacer, plasminogen kringle 5 peptide Pro-Arg-Lys-Leu-Tyr-Asp (protein) PRKLYDGGGGSGGGGSGGGGSTTNTVAAYNLTWKSTNFKTILEWEPKPVNQVYTVQISTKSGDWKSKCFYTTDTECDLTDEIVKDVKQTYLARVFSYPAGNVESTGSAGEPLYENSPEFTPYLETNLGQPTIQSFEQVGTKVNVTVEDERTLVRRNNTFLSLRDVFGKDLIYTLYYWKSSSSGKKTAKTNTNEFLIDVDKGENYCFSVQAVIPSRTVNRKSTDSPVECMG", "values": [
      {"measurement": "affinity for factor VIIa compared with isolated truncated TF (tTF) domain alone", "setting": "factor VIIa", "result": "comparable"},
      {"measurement": "rate of fluid phase factor Xa generation as compared to tTF", "setting": "factor X", "result": "normal rate"},
      {"measurement": "Relative Proteolytic Activity", "setting": "factor X", "result": 0.86},
      {"measurement": "effects on nearby vessels in skin and nearby angiogenic vessels", "setting": "[3]", "result": "No similar effects"},
      {"measurement": "rate of blood flow in the tumor", "setting": "[3]", "result": "general slowing"},
      {"measurement": "vascular permeability of tumor vessels", "setting": "[3]; plasma leakage into extravascular space and hemorrhage", "result": "significant and selective changes"},
      {"measurement": "anti-tumor activity when administered alone", "setting": "[4]", "result": "little or no effect; also recorded: no significant anti-tumor activity"}
    ]}
  ]
}
